Data from PMC5850324, “Interactions between the Hepatitis C Virus Nonstructural 2 Protein and Host Adaptor Proteins 1 and 4 Orchestrate Virus Release” (mBio, 2018).

T1: GLuc-tagged T144A mutant AP-1B (μ subunit) (UniProt Q9Y6Q5 1-423, T144A)
T1 construct: μ subunit of adaptor protein complex AP-1B with T144A; also called phosphorylation site mutant AP-1; source: transfected cells (PCA); not shown: GLuc1 luciferase fragment, N-terminal, kept
T1 sequence: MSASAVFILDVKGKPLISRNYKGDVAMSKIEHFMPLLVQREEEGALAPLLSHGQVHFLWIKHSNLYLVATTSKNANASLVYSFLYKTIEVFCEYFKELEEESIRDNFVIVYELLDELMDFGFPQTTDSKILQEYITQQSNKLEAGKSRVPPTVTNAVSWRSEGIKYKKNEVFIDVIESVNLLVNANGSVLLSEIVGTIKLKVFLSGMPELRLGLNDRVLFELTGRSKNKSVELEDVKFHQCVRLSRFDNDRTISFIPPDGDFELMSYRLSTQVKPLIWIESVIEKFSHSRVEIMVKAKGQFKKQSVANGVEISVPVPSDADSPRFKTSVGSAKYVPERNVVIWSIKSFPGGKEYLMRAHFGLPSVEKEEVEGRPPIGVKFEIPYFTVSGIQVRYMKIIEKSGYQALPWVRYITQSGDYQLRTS

T2: GLuc-tagged T144A mutant AP-1A (μ subunit) (UniProt Q9BXS5 1-423, T144A)
T2 construct: μ subunit of adaptor protein complex AP-1A (AP1M1) with T144A; also called phosphorylation site mutant AP-1; source: transfected cells (PCA); not shown: GLuc1 luciferase fragment, N-terminal, kept
T2 sequence: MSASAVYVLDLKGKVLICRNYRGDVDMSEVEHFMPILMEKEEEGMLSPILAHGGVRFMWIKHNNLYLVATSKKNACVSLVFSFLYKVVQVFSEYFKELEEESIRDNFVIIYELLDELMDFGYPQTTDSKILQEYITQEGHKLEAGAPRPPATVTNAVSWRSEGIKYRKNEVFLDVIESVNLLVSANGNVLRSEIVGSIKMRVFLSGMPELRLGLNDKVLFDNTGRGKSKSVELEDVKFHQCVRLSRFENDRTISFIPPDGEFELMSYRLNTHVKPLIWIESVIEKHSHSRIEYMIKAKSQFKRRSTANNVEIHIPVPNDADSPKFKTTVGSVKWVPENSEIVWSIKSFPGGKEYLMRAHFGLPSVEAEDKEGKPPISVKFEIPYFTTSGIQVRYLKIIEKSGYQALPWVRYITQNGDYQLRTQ

B1: GLuc2-NS2 (hepatitis C virus nonstructural 2 protein, wild type) (natural protein)
chain: YDASVHGQIGAALLVLITLFTLTPGYKTLLSRFLWWLCYLLTLAEAMVQEWAPPMQVRGGRDGIIWAVAIFCPGVVFDITKWLLAVLGPAYLLKGALTRVPYFVRAHALLRMCTMVRHLAGGRYVQMVLLALGRWTGTYIYDHLTPMSDWAANGLRDLAVAVEPIIFSPMEKKVIVWGAETAACGDILHGLPVSARLGREVLLGPADGYTSKGWSLL
notes: cut product of the polyprotein; also called WT NS2; GLuc-NS2; source: 293T, transfected (PCA); Huh7.5, transfected, membrane fraction (co-IP) and knockout cells (PCA); not shown: GLuc2 luciferase fragment, N-terminal, kept

Experiments:
Assay in all cases: split reporter (BiFC, NanoBiT); protein fragment complementation assay (split luciferase): GLuc1-AP μ subunit and GLuc2-HCV protein transfected pairwise into 293T cells; luciferase at 24 h; normalized luminescence ratio (NLR), positive if NLR >25 (>2.2 SD above a random reference set); mutant panels plotted relative to WT; NS2-AP-1B also tested after treatment with compound 7745, 12i, sunitinib or erlotinib
[1] = molecular target: GLuc1-tagged μ subunit of the AP-4 complex (UniProt O00189)
[2] = molecular target: T1, GLuc-tagged T144A mutant AP-1B (μ …); settings: partners not purified
[3] = molecular target: T2, GLuc-tagged T144A mutant AP-1A (μ …); settings: partners not purified

Sequence of GLuc1-tagged μ subunit of the AP-4 complex (O00189 whole entry, one chain of several): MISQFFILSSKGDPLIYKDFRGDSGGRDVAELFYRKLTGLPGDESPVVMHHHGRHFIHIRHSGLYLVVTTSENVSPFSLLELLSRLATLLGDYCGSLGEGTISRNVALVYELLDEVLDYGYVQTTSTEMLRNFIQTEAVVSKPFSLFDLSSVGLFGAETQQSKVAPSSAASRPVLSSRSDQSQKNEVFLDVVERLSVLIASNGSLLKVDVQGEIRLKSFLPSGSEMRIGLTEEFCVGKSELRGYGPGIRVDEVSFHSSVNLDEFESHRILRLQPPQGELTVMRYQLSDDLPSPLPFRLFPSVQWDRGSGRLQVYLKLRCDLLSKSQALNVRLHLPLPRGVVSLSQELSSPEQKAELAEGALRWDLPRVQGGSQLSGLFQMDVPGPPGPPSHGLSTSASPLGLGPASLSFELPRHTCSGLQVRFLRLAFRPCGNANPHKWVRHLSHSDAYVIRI

Molecule	fold reduction of binding (NLR) relative to WT NS2 [1] [fold]	fold reduction of binding (NLR) relative to WT AP-1B [2] [fold]	fold reduction of binding (NLR) relative to WT AP-1A [3] [fold]
GLuc-NS2 double mutant (L202A-L217A) (natural protein)	3	–	–
GLuc-NS2 quadruple mutant (L202A-L203A-L216A-L217A) (natural protein)	4	–	–
B1	–	~2	~2
